Test results reported in publication PMC5749897.

Legend:
[1] = target: E1E2 Y443A (H77 alanine-scanning library clone) (hepatitis C virus genotype 1a, strain H77); assay: flow cytometry on cells
[2] = target: E1E2 S432A (H77 alanine-scanning library clone) (hepatitis C virus genotype 1a, strain H77); assay: flow cytometry on cells

B1: monoclonal antibody AR3C (antibody, V domains shown)
VH: VQLLEQSGAEVKKPGSSVKVSCETSGGTFDNYALNWVRQAPGQGLEWIGGVVPLFGTTRNAQKFQGRVTISDDKSTGTGHMELRSLRSEDTAVYYCVRSVTPRYCGGGFCYGEFDYWGQGTLVTVSS
VL: EIELTQSPATLSVSPGERATLSCRASQSVSSNLAWYQQKPGQAPRLLIYGASTRATGIPARFSGSGSGTEFTLTVSRLEPEDSAVYFCQQYYRSPLTFGGGTKVEIK
% reactivity (of wild type) [1]: 15%
% reactivity (of wild type) [2]: 55%
